The values that follow come from US20080119430.

The data set concerns the target Rho (active Rho-GTP, endogenous in HUVECs).

Positions count from the first letter of the chain named. Names and notes keep the numbering of the source.

B1: BNO69 (endogenous protein in HUVECs, knocked down by adenoviral antisense BNO69R) (protein)
chain: MPEDRNSGGCPAGALASTPFIPKTTYRRIKRCFSFRKGIFGQKLEDTVRYEKRYGNRLAPMLVEQCVDFIRQRGLKEEGLFRLPGQANLVKELQDAFDCGEKPSFDSNTDVHTVASLLKLYLRELPEPVIPYAKYEDFLSCAKLLSKEEEAGVKELAKQVKSLPVVNYNLLKYICRFLDEVQSYSGVNKMSVQNLATVFGPNILRPKVEDPLTIMEGTVVVQQLMSVMISKHDCLFPKDAELQSKPQDGVSNNNEIQKKATMGLLQNKENNNTKDSPSRQCSWDKSESPQRSSMNNGSPTALSGSKTNSPKNSVHKLDVSRSPPLMVKKNPAFNKGSGIVTNGSFSSSNAEGLEKTQTTPNGSLQARRSSSLKVSGTKMGTHSVQNGTVRMGILNSDTLGNPTNVRNMSWLPNGYVTLRDNKQKEQAGELGQHNRLSTYDNVHQQFSMMNLDDKQSIDSATWSTSSCEISLPENSNSCRSSTTTCPEQDFFGGNFEDPVLDGPPQDDLSHPRDYESKSDHRSVGGRSSRATSSSDNSETFVGNSSSNHSALHSLVSSLKQEMTKQKIEYESRIKSLEQRNLTLETEMMSLHDELDQERKKFTMIEIKMRNAERAKEDAEKRNDMLQKEMEQFFSTFGELTVEPRRTERGNTIWIQ
Regarding B1, the “fold increase in Rho activity (active Rho-GTP) in HUVECs after BNO69 knockdown with BNO69R, compared to empty vector” value is 3.1±0.5 fold increase in Rho activity with BNO69R.

B2: BNO69 mutant (R82A) (protein)
chain: B1 chain with R82A
B2: the “fold increase in Rho activity in HUVECs expressing the R82A mutant, compared to empty vector” value is reported as 2.6±0.7 fold increase (n=4 experiments) in Rho activity.
